# B1: His6-Hmt1 (natural protein, S. cerevisiae, UniProt P38074 1-348, looked up)
# chain: MSKTAVKDSATEKTKLSESEQHYFNSYDHYGIHEEMLQDTVRTLSYRNAIIQNKDLFKDKIVLDVGCGTGILSMFAAKHGAKHVIGVDMSSIIEMAKELVELNGFSDKITLLRGKLEDVHLPFPKVDIIISEWMGYFLLYESMMDTVLYARDHYLVEGGLIFPDKCSIHLAGLEDSQYKDEKLNYWQDVYGFDYSPFVPLVLHEPIVDTVERNNVNTTSDKLIEFDLNTVKISDLAFKSNFKLTAKRQDMINGIVTWFDIVFPAPKGKRPVEFSTGPHAPYTHWKQTIFYFPDDLDAETGDTIEGELVCSPNEKNNRDLNIKISYKFESNGIDGNSRSRKNEGSYLMH
# notes: Hmt1, S. cerevisiae; source: E. coli BL21 (DE3), purified (Ni-NTA agarose, imidazole elution, dialyzed)
# Target: T1, GST-Scd6 (S. cerevisiae, UniProt P45978 1-349)
# T1 construct: Scd6, S. cerevisiae; source: E. coli BL21 (DE3), purified (glutathione-sepharose beads)
# T1 sequence (looked up): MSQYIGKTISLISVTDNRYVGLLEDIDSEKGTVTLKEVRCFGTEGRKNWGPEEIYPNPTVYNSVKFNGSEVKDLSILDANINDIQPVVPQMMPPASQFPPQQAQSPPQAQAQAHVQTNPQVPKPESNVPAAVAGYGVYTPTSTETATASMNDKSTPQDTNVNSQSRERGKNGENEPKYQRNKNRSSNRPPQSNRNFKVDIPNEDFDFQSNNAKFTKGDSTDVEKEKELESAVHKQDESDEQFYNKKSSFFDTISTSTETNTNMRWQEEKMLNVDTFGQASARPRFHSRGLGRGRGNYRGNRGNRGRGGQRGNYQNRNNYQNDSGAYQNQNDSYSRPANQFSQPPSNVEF
# Experiment: pull-down; His6-Hmt1 incubated with GST or GST-Scd6 immobilized on glutathione-sepharose beads for 3 h at 4°C, 5 washes with PBS; Coomassie staining and anti-His immunoblot
# Details: both partners purified
binder,measurement,value
B1,binding result,binds

# — publication PMC5077174, “Analysis of the Physiological Activities of Scd6 through Its Interaction with Hmt1” (PLoS ONE, 2016)
